According to IntAct's records for PubMed 31515488:

B1: Four and a half LIM domains protein 2 (Homo sapiens), Q14192 (parent)
chain: MTERFDCHHCNESLFGKKYILREESPYCVVCFETLFANTCEECGKPIGCDCKDLSYKDRHWHEACFHCSQCRNSLVDKPFAAKEDQLLCTDCYSNEYSSKCQECKKTIMPGTRKMEYKGSSWHETCFICHRCQQPIGTKSFIPKDNQNFCVPCYEKQHAMQCVQCKKPITTGGVTYREQPWHKECFVCTACRKQLSGQRFTARDDFAYCLNCFCDLYAKKCAGCTNPISGLGGTKYISFEERQWHNDCFNCKKCSLSLVGRGFLTERDDILCPDCGKDI
partner: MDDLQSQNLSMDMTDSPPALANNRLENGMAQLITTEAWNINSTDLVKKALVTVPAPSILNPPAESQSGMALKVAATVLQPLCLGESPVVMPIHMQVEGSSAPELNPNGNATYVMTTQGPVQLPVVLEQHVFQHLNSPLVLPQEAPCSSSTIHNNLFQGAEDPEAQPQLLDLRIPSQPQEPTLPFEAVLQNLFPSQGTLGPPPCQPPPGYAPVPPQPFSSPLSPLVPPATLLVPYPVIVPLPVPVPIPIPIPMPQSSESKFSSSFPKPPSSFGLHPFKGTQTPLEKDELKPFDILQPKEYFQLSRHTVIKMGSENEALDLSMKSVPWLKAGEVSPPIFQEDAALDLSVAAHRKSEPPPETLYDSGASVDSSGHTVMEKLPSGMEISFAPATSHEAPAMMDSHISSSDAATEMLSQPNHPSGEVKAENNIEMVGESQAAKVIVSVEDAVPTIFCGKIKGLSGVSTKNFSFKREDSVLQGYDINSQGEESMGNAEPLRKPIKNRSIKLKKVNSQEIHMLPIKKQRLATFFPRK
B2: EF-hand domain-containing protein 1 (Homo sapiens), Q5JVL4 (parent)
chain: MVSNPVHGLPFLPGTSFKDSTKTAFHRSQTLSYRNGYAIVRRPTVGIGGDRLQFNQLSQAELDELASKAPVLTYGQPKQAPPADFIPAHVAFDKKVLKFDAYFQEDVPMSTEEQYRIRQVNIYYYLEDDSMSVIEPVVENSGILQGKLIKRQRLAKNDRGDHYHWKDLNRGINITIYGKTFRVVDCDQFTQVFLESQGIELNPPEKMALDPYTELRKQPLRKYVTPSDFDQLKQFLTFDKQVLRFYAIWDDTDSMYGECRTYIIHYYLMDDTVEIREVHERNDGRDPFPLLMNRQRVPKVLVENAKNFPQCVLEISDQEVLEWYTAKDFIVGKSLTILGRTFFIYDCDPFTRRYYKEKFGITDLPRIDVSKREPPPVKQELPPYNGFGLVEDSAQNCFALIPKAPKKDVIKMLVNDNKVLRYLAVLESPIPEDKDRRFVFSYFLATDMISIFEPPVRNSGIIGGKYLGRTKVVKPYSTVDNPVYYGPSDFFIGAVIEVFGHRFIILDTDEYVLKYMESNAAQYSPEALASIQNHVRKREAPAPEAESKQTEKDPGVQELEALIDTIQKQLKDHSCKDNIREAFQIYDKEASGYVDRDMFFKICESLNVPVDDSLVKELIRMCSHGEGKINYYNFVRAFSN
partner: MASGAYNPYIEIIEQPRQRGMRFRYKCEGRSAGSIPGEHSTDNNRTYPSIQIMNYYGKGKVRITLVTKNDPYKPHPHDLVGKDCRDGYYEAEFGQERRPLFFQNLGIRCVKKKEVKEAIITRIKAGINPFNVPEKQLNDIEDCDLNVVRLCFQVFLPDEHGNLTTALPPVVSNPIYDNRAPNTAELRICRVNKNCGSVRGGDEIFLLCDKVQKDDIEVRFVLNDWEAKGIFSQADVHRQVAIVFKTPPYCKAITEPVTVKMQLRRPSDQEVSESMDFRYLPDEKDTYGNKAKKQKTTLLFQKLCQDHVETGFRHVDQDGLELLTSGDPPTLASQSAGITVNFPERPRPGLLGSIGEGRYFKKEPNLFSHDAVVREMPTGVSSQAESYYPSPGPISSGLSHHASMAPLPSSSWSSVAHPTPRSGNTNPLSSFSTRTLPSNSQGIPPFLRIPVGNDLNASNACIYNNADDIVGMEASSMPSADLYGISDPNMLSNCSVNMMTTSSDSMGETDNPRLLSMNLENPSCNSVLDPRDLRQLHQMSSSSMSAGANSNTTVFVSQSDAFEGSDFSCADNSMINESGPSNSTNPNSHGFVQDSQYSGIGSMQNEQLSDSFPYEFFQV
B3: Protein BANP (Homo sapiens), Q8N9N5 (parent)
chain: MMSEHDLADVVQIAVEDLSPDHPVVLENHVVTDEDEPALKRQRLEINCQDPSIKTICLRLDSIEAKLQALEATCKSLEEKLDLVTNKQHSPIQVPMVAGSPLGATQTCNKVRCVVPQTTVILNNDRQNAIVAKMEDPLSNRAPDSLENVISNAVPGRRQNTIVVKVPGQEDSHHEDGESGSEASDSVSSCGQAGSQSIGSNVTLITLNSEEDYPNGTWLGDENNPEMRVRCAIIPSDMLHISTNCRTAEKMALTLLDYLFHREVQAVSNLSGQGKHGKKQLDPLTIYGIRCHLFYKFGITESDWYRIKQSIDSKCRTAWRRKQRGQSLAVKSFSRRTPNSSSYCPSEPMMSTPPPASELPQPQPQPQALHYALANAQQVQIHQIGEDGQVQVGHLHIAQVPQGEQVQITQDSEGNLQIHHVGQDGQLLEATRIPCLLAPSVFKASSGQVLQGAQLIAVASSDPAAAGVDGSPLQGSDIQVQYVQLAPVSDHTAGAQTAEALQPTLQPEMQLEHGAIQIQ
partner: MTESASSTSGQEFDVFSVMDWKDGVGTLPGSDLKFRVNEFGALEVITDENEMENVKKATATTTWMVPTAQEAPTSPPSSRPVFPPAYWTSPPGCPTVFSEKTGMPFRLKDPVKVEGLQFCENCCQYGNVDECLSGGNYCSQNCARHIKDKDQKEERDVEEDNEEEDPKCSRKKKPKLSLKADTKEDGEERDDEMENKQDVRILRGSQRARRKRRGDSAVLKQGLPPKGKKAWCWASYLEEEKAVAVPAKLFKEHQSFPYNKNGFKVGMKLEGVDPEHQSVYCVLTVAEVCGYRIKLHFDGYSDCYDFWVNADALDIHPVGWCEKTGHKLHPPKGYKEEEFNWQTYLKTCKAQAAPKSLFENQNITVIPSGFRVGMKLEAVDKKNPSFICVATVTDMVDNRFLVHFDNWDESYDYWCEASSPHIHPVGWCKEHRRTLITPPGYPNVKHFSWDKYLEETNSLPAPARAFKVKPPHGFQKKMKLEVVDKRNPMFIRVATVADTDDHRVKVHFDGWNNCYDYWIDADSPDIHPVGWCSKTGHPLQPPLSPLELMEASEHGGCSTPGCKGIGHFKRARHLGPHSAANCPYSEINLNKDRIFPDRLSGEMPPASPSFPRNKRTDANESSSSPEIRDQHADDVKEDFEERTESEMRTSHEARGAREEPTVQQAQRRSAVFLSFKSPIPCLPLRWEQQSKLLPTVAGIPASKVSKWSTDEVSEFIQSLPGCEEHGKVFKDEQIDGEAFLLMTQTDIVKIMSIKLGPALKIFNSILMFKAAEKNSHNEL
B4: Cytochrome b-245 chaperone 1 (Homo sapiens), Q9BQA9 (parent)
chain: MYLQVETRTSSRLHLKRAPGIRSWSLLVGILSIGLAAAYYSGDSLGWKLFYVTGCLFVAVQNLEDWEEAIFDKSTGKVVLKTFSLYKKLLTLFRAGHDQVVVLLHDVRDVSVEEEKVRYFGKGYMVVLRLATGFSHPLTQSAVMGHRSDVEAIAKLITSFLELHCLESPTELSQSSDSEAGDPASQS
B5: Golgin-45 (Homo sapiens), Q9H2G9 (parent)
chain: MTTKNLETKVTVTSSPIRGAGDGMETEEPPKSVEVTSGVQSRKHHSLQSPWKKAVPSESPGVLQLGKMLTEKAMEVKAVRILVPKAAITHDIPNKNTKVKSLGHHKGEFLGQSEGVIEPNKELSEVKNVLEKLKNSERRLLQDKEGLSNQLRVQTEVNRELKKLLVASVGDDLQYHFERLAREKNQLILENEALGRNTAQLSEQLERMSIQCDVWRSKFLASRVMADELTNSRAALQRQNRDAHGAIQDLLSEREQFRQEMIATQKLLEELLVSLQWGREQTYSPSVQPHSTAELALTNHKLAKAVNSHLLGNVGINNQKKIPSTVEFCSTPAEKMAETVLRILDPVTCKESSPDNPFFESSPTTLLATKKNIGRFHPYTRYENITFNCCNHCRGELIAL
partner: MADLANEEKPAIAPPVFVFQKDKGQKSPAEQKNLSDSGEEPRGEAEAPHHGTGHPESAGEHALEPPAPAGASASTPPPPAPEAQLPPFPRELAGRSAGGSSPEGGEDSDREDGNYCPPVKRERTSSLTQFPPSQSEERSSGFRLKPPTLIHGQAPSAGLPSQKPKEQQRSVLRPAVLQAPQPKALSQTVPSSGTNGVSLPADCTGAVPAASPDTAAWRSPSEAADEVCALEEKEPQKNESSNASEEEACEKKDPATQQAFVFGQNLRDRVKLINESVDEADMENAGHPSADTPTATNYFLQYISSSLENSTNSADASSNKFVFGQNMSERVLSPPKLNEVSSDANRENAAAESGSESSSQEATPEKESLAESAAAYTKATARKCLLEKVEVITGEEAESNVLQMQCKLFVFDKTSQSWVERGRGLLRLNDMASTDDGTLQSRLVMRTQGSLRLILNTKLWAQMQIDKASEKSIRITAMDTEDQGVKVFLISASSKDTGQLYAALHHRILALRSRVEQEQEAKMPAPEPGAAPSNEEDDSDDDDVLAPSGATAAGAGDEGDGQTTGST

Variants of: B1
Details: with rai2_human RAI2, Q9Y5P3

effect of a mutation on the interaction | Variant
with no effect | N95K

Variants of: B2
Details: with rel_human REL

effect of a mutation on the interaction | Variant
with no effect | Y102C
with no effect | F229L
with no effect | R159W

Variants of: B3
Details: with lmbl3_human L3MBTL3, Q96JM7

effect of a mutation on the interaction | Variant
with no effect | P348S

Variants of: B4
Details: with BCL2L13, Q9BXK5
BCL2L13, Q9BXK5, sequence (Q9BXK5 whole entry): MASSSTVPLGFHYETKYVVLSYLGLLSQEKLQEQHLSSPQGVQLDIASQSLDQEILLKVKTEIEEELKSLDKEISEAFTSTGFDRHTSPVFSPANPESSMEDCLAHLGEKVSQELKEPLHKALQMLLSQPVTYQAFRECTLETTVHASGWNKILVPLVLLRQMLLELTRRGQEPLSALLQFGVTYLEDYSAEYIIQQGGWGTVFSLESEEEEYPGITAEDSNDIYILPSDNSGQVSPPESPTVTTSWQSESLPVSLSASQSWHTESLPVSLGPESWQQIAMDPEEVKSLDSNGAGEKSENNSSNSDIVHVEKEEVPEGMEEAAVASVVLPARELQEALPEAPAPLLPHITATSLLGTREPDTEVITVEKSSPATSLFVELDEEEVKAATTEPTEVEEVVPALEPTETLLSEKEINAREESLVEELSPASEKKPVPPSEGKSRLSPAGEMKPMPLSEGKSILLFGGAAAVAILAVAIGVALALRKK

effect of a mutation on the interaction | Variant
with no effect | R129W

Variants of: B5
Details: with ranb3_human RANBP3, Q9H6Z4

effect of a mutation on the interaction | Variant
with no effect | H45R
with no effect | Q40R
